Experimental data reported in patent US20120269832A1.

Key:
[1] = target: human CD40L protein translated from transfected CD40L mRNA (pCR2.1 CD40L WT, >100 nucleotide poly-A tail) (human) (UniProt P29965); test: cell-based or functional assay
[2] = target: CD40, the cognate receptor molecule for CD40L, on human monocyte-derived dendritic cells (human) (UniProt P25942); test: cell-based or functional assay
Sequence of UniProt P25942 (P25942 21-277): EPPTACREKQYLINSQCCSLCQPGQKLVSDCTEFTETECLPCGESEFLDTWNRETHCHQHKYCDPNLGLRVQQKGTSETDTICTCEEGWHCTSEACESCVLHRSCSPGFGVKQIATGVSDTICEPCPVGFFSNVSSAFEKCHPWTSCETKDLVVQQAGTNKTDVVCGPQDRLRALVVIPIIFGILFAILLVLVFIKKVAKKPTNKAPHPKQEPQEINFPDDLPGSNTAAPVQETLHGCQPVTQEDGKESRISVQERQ

IL-12p70 (pg/ml), "Cocktail" matured and reactivated DCs co-cultured with HeLa/>100 polyA + IFN-γ + 24-31 [1] [pg/mL] | IL-12 p70 release from CD40L mRNA-transfected DCs cultured with IFN-γ and 10 or 50 µg/ml blocking anti-CD40L antibody [1] [%] | IL-12p70 (pg/ml), "Cocktail" matured and reactivated DCs co-cultured with HeLa/>100 polyA + IFN-γ [2] [pg/mL] | IL-12p70 (pg/ml), immature DCs co-cultured with HeLa/>100 polyA + IFN-γ [2] [pg/mL] | Substance
2.5 | 50 |  |  | blocking CD40L monoclonal antibody 24-31 (eBioscience)
 |  | 26.3 | 372 | human CD40L protein translated from transfected CD40L mRNA (pCR2.1 CD40L WT, >100 nucleotide poly-A tail) (from UniProt P29965 1-261) (ligand)
